The record followed here is publication PMC4218801.

For the data set, the target named is T1, Crp (Mycobacterium smegmatis mc2155) (UniProt A0R5H1).
T1 sequence: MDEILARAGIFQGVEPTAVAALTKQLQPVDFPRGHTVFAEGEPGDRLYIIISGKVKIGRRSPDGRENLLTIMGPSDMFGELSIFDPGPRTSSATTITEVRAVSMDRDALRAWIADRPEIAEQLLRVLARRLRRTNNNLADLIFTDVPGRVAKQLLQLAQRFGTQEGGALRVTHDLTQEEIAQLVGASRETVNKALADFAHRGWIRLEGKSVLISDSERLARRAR
Put plainly: EMSA. Conditions: Invitrogen EMSA kit binding buffer, 100 fmol (9.3 ng) DNA, 100 uM cAMP, 20 min at room temperature; 8% native PAGE in 0.5x TBE pH 8.3 at 4 C, SYBR green stain.

For “GGCAGACCGCATCCGCGGCGCGTTCGGTCGCCGCGTCCCGCGCGCGGGAGATCCGTGCGTTTCGGGATGTGATGCCCGTCGCACGACGTGAGCGGCGGTGTGGAGAATCACGGCTCAGCAAAGTTGCATTTGTAAGAGGGCGCGACCAGA (double strand) [ahpC 150-bp wild-type IR1]”, the binding result was “binds”.
